Assay results from the supplement of paper PMC9170038.

System: MS2 coat protein
Assay: apparent KD of MS2 coat protein; designed switch direction (-1 OFF switch, 1 ON switch): -1; higher = weaker reporter binding
Procedure, shortened: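 Each step of the titration lasted 0.8–1.5 h at the lowest concentration and 10–20 min at the highest. The protein, SNAP-549-labelled MS2 coat protein, went from 0.7 or 1.5 nM doubling to 3 µM over RNA switches transcribed on Illumina chips by stalled E. coli RNA polymerase. Normalised cluster fluorescence was curve-fitted, and the per-design median over clusters is given as apparent KD.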

[1] = input ligand: microRNA oligo, concentration not stated
[2] = Eterna round: R95, input ligand: microRNA oligo, concentration not stated
[3] = Eterna round: R95, input ligand: FMN 200 uM
[4] = Eterna round: R95, input ligand: none

Sequence | apparent KD of MS2 coat protein (input ligand: FMN 200 uM) | apparent KD of MS2 coat protein [1] | apparent KD of MS2 coat protein (input ligand: none) | apparent KD of MS2 coat protein [2] | apparent KD of MS2 coat protein [3] | apparent KD of MS2 coat protein [4]
UGAUCUAGCGGAGGAUAUACAUGAGGAUCACCCAUGUAGGAUCCAUGACCGUAGUCGUGGAUCGUGUAGAAGGCCGCUAGAUCU [JL ENG2 3.70] (Eterna round: R96, puzzle: Exclusion NG 2) | 0.013 µM | 0.00814 µM | 0.0131 µM |  |  | 
UGAUCUAGCGGAGGAUAUACAUGAGGAUCACCCAUGUAGUAGUCUGUACCGUAGUGCAGACUUGUGUAGAAGGCCGCUAGAUCU [JL ENG2 3.61] (Eterna round: R96, puzzle: Exclusion NG 2) | 0.0158 µM | 0.0108 µM | 0.0141 µM |  |  | 
UGAUCUUUUGUUAGGAUAUGCUGGGUUUUUUCUCAGCAGAAGGGACAUGAGGAUCACCCAUGUUUUGUCAUAAA [Magic-07] (puzzle: Brourd's mod of Exclusion 4) |  |  |  | 0.0203 µM |  | 
UGAUCUUUUGUUAGGAUAUGCUGUUUUUUUUUUCAGCAGAAGGGACAUGAGGAUCACCCAUGUUUUGUCAUAAA [Magic-06] (Eterna round: R96, puzzle: Brourd's mod of Exclusion 4) | 0.045 µM | 0.0241 µM | 0.033 µM |  |  | 
UGAUCUUUUGUUAGGAUAUGCUGUUUUUUUUUUCAGCAGAAGGGACAUGAGGAUCACCCAUGUUUUGUCAUAAA [Magic-06] (puzzle: Brourd's mod of Exclusion 4) |  |  |  | 0.0144 µM |  | 
UGAUUGAUUAACAGAUUAUACAUGAGGAUCACCCAUGUAGGUCCUACGUGCACUUUAUGCAGCUCGUCUUAUUCCCA [Sensor-V1 #71] (Eterna round: R97, puzzle: Sensor, turn-off variant 1) | 0.0344 µM |  | 0.0365 µM |  |  | 
UGAUUGUUUACCAGAUUAUACAUGAGGAUCACCCAUGUAGAUCCUACGUGCACGUUAUACAGCUCGUCUUAUUCCCA [Sensor-V1 #74] (Eterna round: R97, puzzle: Sensor, turn-off variant 1) | 0.0354 µM |  | 0.0362 µM |  |  | 
UGAUUGUUUACCAGAUUAUACAUGAGGAUCACCCAUGUAGAUCCUACGUGCACGUUAUGCAGCUCGUCUUAUUCCCA [Sensor-V1 #73] (Eterna round: R97, puzzle: Sensor, turn-off variant 1) | 0.0403 µM |  | 0.0441 µM |  |  | 
UGCAUGUGAGGAUAUGUGUACUGUUUUUUGUUUAGAUGUACACAGAAGGCACAUGAGGAUCACCCAUGUAGUAC [Ex4 - 3 - 33] (puzzle: Exclusion 4) |  |  |  | 0.0461 µM |  | 
UGCCAGAAAGGAUAUACAGCCCGGGCGUUCCUGCGAUAUAUACAUGAGGAUCACCCAUGUAGAAGGUUCGGCGG [EX2 C.12] (Eterna round: R97, puzzle: Exclusion 2) | 0.0331 µM |  | 0.0285 µM |  |  | 
UGCGGGCUUCUGAGACCUCACAUGAGGAUCACCCAUGUGCUUGUCUUGUAAGUGGGUAGGUCGUUGGCUGACUCACA (Eterna round: R97, puzzle: Sensor, turn-off variant 1) | 0.0182 µM |  | 0.0178 µM |  |  | 
UGCUGACGAGGAUAUACAUGAGGAUCACCCAUGUUGGUCAAGCGACGAUAGUCGCAAUGUAGAAGGUGUCAGCA [E3/8-B1] (Eterna round: R97, puzzle: Exclusion 3) | 0.694 µM |  | 0.114 µM |  |  | 
UGGCAAGUAGGAUAUUGGGUGUGGGACAUGAGGAUCACCCAUGUGAUCACUCAAUCUCUCCGAGAAGGGCUAAGAA [Araes] (puzzle: Exclusion 5) |  |  |  | 0.014 µM |  | 
UGGCUACAUGAGGAUCACCCAUGUCAGGAUAUGCCGUUGAAUUGACAUCGACGUACGGGUAGAAGGGACUGCGU [1st #10] (Eterna round: R97, puzzle: Exclusion 1) | 0.05 µM |  | 0.0416 µM |  |  | 
UGGGUACAUGAGGAUCACCCAUGUGAGGAUAUGCCGGAAGAAUCGCAGAAAUGAGCCAGUAGAAGGCACAAGGG [Eternabot (L2) Solution 100] (Eterna round: R97, puzzle: Exclusion 1) | 1.3 µM |  | 1.19 µM |  |  | 
UGGUAACAUGAGGAUCACCCAUGUCAGGAUAUCAGGAAGAGGAGAGGAGAGGAGAAGAUGAGAAGGGACUAUAU [Excluse me! 12 - Jieux - Exclusion 1] (puzzle: Exclusion 1) |  |  |  | 0.0198 µM |  | 
UGGUAACAUGAGGAUCACCCAUGUCAGGAUAUCAGUAAGAAUAGAUUAGAUUAGAAUAUGAGAAGGGACUAUAU [Excluse me! 4 - Jieux - Exclusion 1] (puzzle: Exclusion 1) |  |  |  | 0.0309 µM |  | 

Sequence | apparent KD of MS2 coat protein (input ligand: FMN 200 uM) | apparent KD of MS2 coat protein [1] | apparent KD of MS2 coat protein (input ligand: none) | apparent KD of MS2 coat protein [2] | apparent KD of MS2 coat protein [3] | apparent KD of MS2 coat protein [4]
UGUAAGCUAGGAUAUGCUUUGGGAAAGCAUUCCUUCGAUAAACUUGAGGAUCACCCAAGUAGAAGGAGCUUACA [salish99_ex2_r4_005] (Eterna round: R97, puzzle: Exclusion 2) | 0.0208 µM |  | 0.0124 µM |  |  | 
UGUACGAUGCGUGCUGACAUGCGUCGUGCAGCAGGUUUUACAUGAGGAUCACCCAUGUCCUCACUUGCUCGUCUUGU (puzzle: Sensor v3, turn-off variant 2) |  |  |  | 0.187 µM | 0.257 µM | 0.279 µM
UGUACUAUGCGAGCUGACUUGCGUAGUGCAGCAGGUGGAACAUGAGGAUCACCCAUGUCCUCAUUUGCUCGUCUUAU [SL-sv3-2.03 JL mod] (puzzle: Sensor v3, turn-off variant 2) |  |  |  | 0.143 µM | 0.039 µM | 0.0412 µM
UGUCAGAUGGUAGGAUAUCCAUAUCGAGUGACCCUUUCAUAACAUGAGGAUCACCCAUGUCGGUGGGAGAAGGGCCGUACGGUG [salish99_ExNG02_R04_024] (Eterna round: R96, puzzle: Exclusion NG 2) | 0.0271 µM | 0.0296 µM | 0.0362 µM |  |  | 
UGUCAGAUGGUAGGAUAUCCGUAUCGCGUGUCCCUUUCCUAACAUGAGGAUCACCCAUGUCGGUGGGAGAAGGGCCGUAUGGUG [salish99_ExNG02_R04_037] (Eterna round: R96, puzzle: Exclusion NG 2) | 0.0129 µM | 0.0106 µM | 0.0153 µM |  |  | 
UGUGUCCGGGAGGAUAUCAGAACGCUAGUGGUCUGAGAAGGCCUAACAUGAGGAUCACCCAUGUGAUUAUUUAU [Eternabot (L2) Solution 51] (Eterna round: R97, puzzle: Exclusion 6) | 0.0934 µM |  | 0.0525 µM |  |  | 
UGUGUGAGACAGGAUAUGCCGGAUGAAUUGCAGGUAGAAGGGUCUACAUGAGGAUCACCCAUGUGGCCGGUUGG [Ex6 #76] (Eterna round: R97, puzzle: Exclusion 6) | 0.0198 µM |  | 0.0136 µM |  |  | 
UGUGUGAGACAGGAUAUGCCGGUUGUAUUACUGGUAGAAGGGUCUACAUGAGGAUCACCCAUGUGGCCGGCCGG [Ex6 #82] (Eterna round: R97, puzzle: Exclusion 6) | 0.0731 µM |  | 0.0262 µM |  |  | 
UGUUGGCGAGGAUAUACAUGAGGAUCACCCAUGUGAGAGAAAAAAGUGAGGAAGAAAAGUAGAAGGCGCUGACC [salish99_ex3_r3_042] (puzzle: Exclusion 3) |  |  |  | 0.041 µM | 0.165 µM | 0.0551 µM
UGUUGGUACGUAGGAUAUCCACCAACAGGUGGAAGGAUAUGUACGCAGAAGGUUCGCCAACAGGCGGAGAAGGACGUGGUAACU [pwkr exNG2 2xF7 2xFMN.29] (Eterna round: R96, puzzle: Exclusion NG 2) | 0.0346 µM | 0.0738 µM | 0.169 µM |  |  | 
UGUUGUCGCGUAGGAUAUGAGGAUCACCCAUAUACAGGAUAUGAAAAGAAGGGUCUGAGGAUCACCCAGAAGGACGGGACAACU [pwkr exNG2 2xF5 2xFMN.28] (Eterna round: R96, puzzle: Exclusion NG 2) | 1.39 µM | 0.0949 µM | 0.116 µM |  |  | 
UGUUGUCGCGUAGGAUAUGGCCAACAGGCCCUAGGAUAUGCGAAAGCAGAAGGAGCGCCAACAGGCGAGAAGGACGGGACAACU [pwkr exNG2 2xF7 2xFMN.17] (Eterna round: R96, puzzle: Exclusion NG 2) | 0.0206 µM | 0.0136 µM | 0.359 µM |  |  | 
UGUUGUCGCGUAGGAUAUGGCCAACAGGCCCUAGGAUAUGGGAAACCAGAAGGAGCGCCAACAGGCGAGAAGGACGGGACAACU [pwkr exNG2 2xF7 2xFMN.19] (Eterna round: R96, puzzle: Exclusion NG 2) | 0.734 µM | 0.451 µM | 0.268 µM |  |  | 
UGUUGUUACGCAGGAUAUCCACCAACAGGUGGAAGGAUAUGUACGCAGAAGGUUCGCCAACAGGCGGAGAAGGGCGGGUUAACA [pwkr exNG2 2xF7 2xFMN.26] (Eterna round: R96, puzzle: Exclusion NG 2) | 0.178 µM | 0.0634 µM | 3.69 µM |  |  | 
UGUUGUUCAGGAUAUGGUGUGUUGUACAUGAGGAUCACCCAUGUGGGUCCUGGUUUGGCGUCAGAAGGGAAUGUUG [salish99_ex5_r4_118] (Eterna round: R97, puzzle: Exclusion 5) | 0.482 µM |  | 0.778 µM |  |  | 
UUAAAACGUGUAGGAUAUGCGUGGCGAAGCUAUGCAGAAGGACAUGAGGAUCACCCAUGUUCCUGCGUCCGCGUACGGAUGCAA [JL Eng1 1.21 mod 2] (Eterna round: R96, puzzle: Exclusion NG 1) | 0.018 µM | 0.0119 µM | 0.0131 µM |  |  | 
UUAAAUCAUGUAGGAUAUGCGUGGCGAAGCUAUGCAGAAGGACAUGAGGAUCACCCAUGUGCUUCCGUCUGCGUACAGAUGGUA [JL ENG1 1.13] (Eterna round: R96, puzzle: Exclusion NG 1) | 0.315 µM | 0.0527 µM | 0.0625 µM |  |  | 
